No end group written: not given here. *: point of attachment. Biotin = O=C1N[C@H]2[C@H](CS[C@H]2CCCCC(=O)*)N1
What was measured:
ET140-p21 = target: T1, ET140-p21 (human, cysteine pairing not given here); test: peptide ELISA, biotin peptide on streptavidin plate
T1 construct: also called peptide 21
T1 peptide: Biotin-SGSGIPCQLRCSSNTPPLT
Method: (§1) The peptides were coated onto Streptavidin plates at 2 ug/mL in PBST (PBS+0.05% Tween-20). After washing and blocking with 3% BSA. […] “mIgG1” used in all Examples represents that the variable region is fully human and the Fc part is mouse IgG1. Then HRP anti-mouse IgG detection antibody was added to each well. Finally, the color was developed using TMB substrate. A450 was recorded for data analysis.

ET140-p28 = target: T2, ET140-p28 (human, cysteine pairing not given here); test: as above
T2 construct: also called peptide 28
T2 peptide: Biotin-SGSGSSNTPPLTCQRYCNA
Method: as §1

ET140-p30 = target: T3, ET140-p30 (human, cysteine pairing not given here); test: as above
T3 construct: also called peptide 30
T3 peptide: Biotin-SGSGNTPPLTCQRYCNASV
Method: as §1

ET140-p20 = target: T4, ET140-p20 (human, cysteine pairing not given here); test: as above
T4 construct: also called peptide 20
T4 peptide: Biotin-SGSGCIPCQLRCSSNTPPL
Method: as §1

ET140-p22 = target: T5, ET140-p22 (human, cysteine pairing not given here); test: as above
T5 construct: also called peptide 22
T5 peptide: Biotin-SGSGPCQLRCSSNTPPLTC
Method: as §1

ET140-p23 = target: T6, ET140-p23 (human, cysteine pairing not given here); test: as above
T6 construct: also called peptide 23
T6 peptide: Biotin-SGSGCQLRCSSNTPPLTCQ
Method: as §1

ET140-p13 = target: T7, ET140-p13 (human, cysteine pairing not given here); test: as above
T7 construct: also called peptide 13
T7 peptide: Biotin-SGSGFDSLLHACIPCQLRC
Method: as §1

ET140-p34 = target: T8, ET140-p34 (human, cysteine pairing not given here); test: as above
T8 construct: also called peptide 34
T8 peptide: Biotin-SGSGLTCQRYCNASVTNSV
Method: as §1

ET140-p29 = target: T9, ET140-p29 (human, cysteine pairing not given here); test: as above
T9 construct: also called peptide 29
T9 peptide: Biotin-SGSGSNTPPLTCQRYCNAS
Method: as §1

ET140-p7 = target: T10, ET140-p7 (human, cysteine pairing not given here); test: as above
T10 construct: also called peptide 7
T10 peptide: Biotin-SGSGCSQNEYFDSLLHACI
Method: as §1

ET140-p37 = target: T11, ET140-p37 (human); test: as above
T11 construct: also called peptide 37
T11 peptide: Biotin-SGSGQRYCNASVTNSVKGT
Method: as §1

ET140-p2 = target: T12, ET140-p2 (human); test: as above
T12 construct: also called peptide 2
T12 peptide: Biotin-SGSGQMAGQCSQNEYFDSL
Method: as §1

ET140-p1 [1] = target: T13, ET140-p1 (human); test: as above
T13 construct: also called peptide 1; ET140-pl
T13 peptide: Biotin-SGSGLQMAGQCSQNEYFDS
Method: as §1

ET140-p17 [2] = target: T14, ET140-p17 (human, cysteine pairing not given here); test: as above
T14 construct: also called peptide 17
T14 peptide: Biotin-SGSGLHACIPCQLRCSSNT
Method: as §1

ET140-p14 = target: T15, ET140-p14 (human, cysteine pairing not given here); test: as above
T15 construct: also called peptide 14
T15 peptide: Biotin-SGSGDSLLHACIPCQLRCS
Method: as §1

ET140-p38 = target: T16, ET140-p38 (human); test: as above
T16 construct: also called peptide 38
T16 peptide: Biotin-SGSGRYCNASVTNSVKGTN
Method: as §1

ET140-p35 [3] = target: T17, ET140-p35 (human, cysteine pairing not given here); test: as above
T17 construct: also called peptide 35
T17 peptide: Biotin-SGSGTCQRYCNASVTNSVK
Method: as §1

ET140-p39 = target: T18, ET140-p39 (human); test: as above
T18 construct: also called peptide 39
T18 peptide: Biotin-SGSGYCNASVTNSVKGTNA
Method: as §1

ET140-p24 = target: T19, ET140-p24 (human, cysteine pairing not given here); test: as above
T19 construct: also called peptide 24
T19 peptide: Biotin-SGSGQLRCSSNTPPLTCQR
Method: as §1

ET140-p26 = target: T20, ET140-p26 (human, cysteine pairing not given here); test: as above
T20 construct: also called peptide 26
T20 peptide: Biotin-SGSGRCSSNTPPLTCQRYC
Method: as §1

ET140-p15 [4] = target: T21, ET140-p15 (human, cysteine pairing not given here); test: as above
T21 construct: also called peptide 15
T21 peptide: Biotin-SGSGSLLHACIPCQLRCSS
Method: as §1

ET140-p8 = target: T22, ET140-p8 (human); test: as above
T22 construct: also called peptide 8
T22 peptide: Biotin-SGSGSQNEYFDSLLHACIP
Method: as §1

ET140-p18 [5] = target: T23, ET140-p18 (human, cysteine pairing not given here); test: as above
T23 construct: also called peptide 18
T23 peptide: Biotin-SGSGHACIPCQLRCSSNTP
Method: as §1

ET140-p16 = target: T24, ET140-p16 (human, cysteine pairing not given here); test: as above
T24 construct: also called peptide 16
T24 peptide: Biotin-SGSGLLHACIPCQLRCSSN
Method: as §1

ET140-p33 = target: T25, ET140-p33 (human, cysteine pairing not given here); test: as above
T25 construct: also called peptide 33
T25 peptide: Biotin-SGSGPLTCQRYCNASVTNS
Method: as §1

ET140-p5 = target: T26, ET140-p5 (human); test: peptide ELISA on streptavidin plate
T26 construct: also called peptide 5
T26 peptide: Biotin-SGSGGQCSQNEYFDSLLHA
Method: as §1

ET140-p3 = target: T27, ET140-p3 (human); test: peptide ELISA on streptavidin plate
T27 construct: also called peptide 3
T27 peptide: Biotin-SGSGMAGQCSQNEYFDSLL
Method: as §1

ET140-p1 [6] = target: T13, ET140-p1; test: peptide ELISA on streptavidin plate
Method: as §1

ET140-p17 [7] = target: T14, ET140-p17; test: peptide ELISA on streptavidin plate
Method: as §1

ET140-p35 [8] = target: T17, ET140-p35; test: peptide ELISA on streptavidin plate
Method: as §1

ET140-p15 [9] = target: T21, ET140-p15; test: peptide ELISA on streptavidin plate
Method: as §1

ET140-p6 = target: T28, ET140-p6 (human, cysteine pairing not given here); test: peptide ELISA on streptavidin plate
T28 construct: also called peptide 6
T28 peptide: Biotin-SGSGQCSQNEYFDSLLHAC
Method: as §1

ET140-p18 [10] = target: T23, ET140-p18; test: peptide ELISA on streptavidin plate
Method: as §1

Measured: binding result

B1: ET140-204 mIgG1 (antibody, V domains shown)
VH: EVQLVQSGAEMKKPGASLKLSCKASGYTFIDYYVYWMRQAPGQGLESMGWINPNSGGTNYAQKFQGRVTMTRDTSISTAYMELSRLRSDDTAMYYCARSQRDGYMDYWGQGTLVTVSS
VL: QSALTQPASVSASPGQSIAISCTGTSSDVGWYQQHPGKAPKLMIYEDSKRPSGVSNRFSGSKSGNTASLTISGLQAEDEADYYCSSNTRSSTLVFGGGTKLTVLG
notes: also called ET140-54 mIgG1; ET140-54
not listed: ET140-p5 | ET140-p3 | ET140-p1 [6] | ET140-p17 [7] | ET140-p35 [8] | ET140-p15 [9] | ET140-p6 | ET140-p18 [10]
no binding (tested: 1 ug/mL): all other assays above

B2: ET140-174 mIgG1 (antibody, V domains shown)
VH: EVQLVQSGAEVKKPGESLKISCKGSGYSFTSYWIGWVRQMPGKGLEWMGIIYPGDSDTRYSPSFQGHVTISADKSISTAYLQWSSLKASDTAMYYCARYSGSFDNWGQGTLVTVSS
VL: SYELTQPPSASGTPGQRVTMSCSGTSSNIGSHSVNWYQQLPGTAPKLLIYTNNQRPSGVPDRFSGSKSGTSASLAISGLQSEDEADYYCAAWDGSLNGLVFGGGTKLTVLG
notes: also called ET140-24 mIgG1; ET140-24
not listed: ET140-p5 | ET140-p3 | ET140-p1 [6] | ET140-p17 [7] | ET140-p35 [8] | ET140-p15 [9] | ET140-p6 | ET140-p18 [10]
no binding (tested: 1 ug/mL): all other assays above

B3: ET140-153 mIgG1 (antibody, V domains shown)
VH: QVQLVQSGAEVKKPGSSVKVSCKASGGTFSSYAISWVRQAPGQGLEWMGRIIPILGIANYAQKFQGRVTITADKSTSTAYMELSSLRSEDTAVYYCARGGYYSHDMWSEDWGQGTLVTVSS
VL: LPVLTQPPSASGTPGQRVTISCSGRSSNIGSNSVNWYRQLPGAAPKLLIYSNNQRPPGVPVRFSGSKSGTSASLAISGLQSEDEATYYCATWDDNLNVHYVFGTGTKVTVLG
notes: also called ET140-3 mIgG1; ET140-3
no binding (tested: 1 ug/mL): ET140-p5 | ET140-p3 | ET140-p1 [6] | ET140-p17 [7] | ET140-p35 [8] | ET140-p15 [9] | ET140-p6 | ET140-p18 [10]

From patent publication US20210346432A1 (Memorial Sloan Kettering, published 2021)
